Test [1] addresses T1, Human Nectin-4 (residues Gly32-Ser349; NCBI RefSeq: NP_112178.2) with C-terminal FLAG tag (human, UniProt Q96NY8 32-349, randomly biotinylated with EZ-Link Sulfo-NHS-LC-LC-Biotin).
T1 construct: range 32-349; also called human Nectin-4 protein; not shown: C-terminal FLAG tag
T1 sequence (looked up): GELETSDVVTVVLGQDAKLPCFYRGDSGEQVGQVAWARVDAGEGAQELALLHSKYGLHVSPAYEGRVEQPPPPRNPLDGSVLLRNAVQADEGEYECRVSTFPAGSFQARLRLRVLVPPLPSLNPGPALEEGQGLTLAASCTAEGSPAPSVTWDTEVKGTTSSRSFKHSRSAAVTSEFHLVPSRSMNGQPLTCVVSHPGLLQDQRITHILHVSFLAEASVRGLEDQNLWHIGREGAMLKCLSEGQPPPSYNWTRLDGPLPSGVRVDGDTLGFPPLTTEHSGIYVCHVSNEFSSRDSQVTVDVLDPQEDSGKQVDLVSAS
Nature of the test: SPR (Biacore 3000), biotinylated human Nectin-4 on streptavidin chip. How it is done:
Streptavidin was immobilized on the chip using standard amine-coupling chemistry at 25° C. with HBS-N (10 mM HEPES, 0.15 M NaCl, pH 7.4) as the running buffer. […] Buffer was changed to PBS/0.05% Tween 20 and a dilution series of the peptides was prepared in this buffer with a final DMSO concentration of 0.5%. […] Data were corrected for DMSO excluded volume effects. All data were double-referenced for blank injections and reference surface using standard processing procedures and data processing and kinetic fitting were performed using Scrubber software, version 2.0c (BioLogic Software). Data were fitted using simple 1:1 binding model allowing for mass transport effects where appropriate.
On the technique in general: SPR reads the build-up and loss of mass on a sensor chip optically.

For test [2], the target named is CD137 expressed on cells (CHO cells expressing CD137); Jurkat cells of the Promega CD137 luciferase reporter … (UniProt Q07011 24-255, limits assumed). Nature of the test: cell-based or functional assay.
Test [3] has as its target T2, Recombinant human CD137 (R&D systems) (human, UniProt Q07011 24-186, biotinylated with EZ-Link Sulfo-NHS-LC-LC-Biotin).
T2 construct: Bought protein; also called human CD137 protein; TNFRSF9
As to the kind of experiment: SPR (Biacore), biotinylated human CD137 on streptavidin chip. How it is done: The protein was desalted to remove uncoupled biotin using spin columns into PBS.
For analysis of peptide binding, a Biacore T200 or a Biacore 3000 instrument was used with a XanTec CMD500D chip. Streptavidin was immobilized on the chip using standard amine-coupling chemistry at 25° C. with HBS-N (10 mM HEPES, 0.15 M NaCl, pH 7.4) as the running buffer. Briefly, the carboxymethyl dextran surface was activated with a 7 min injection of a 1:1 ratio of 0.4 M 1-ethyl-3-(3-dimethylaminopropyl) carbodiimide hydrochloride (EDC)/0.1 M N-hydroxy succinimide (NHS) at a flow rate of 10 μl/min. For capture of streptavidin, the protein was diluted to 0.2 mg/ml in 10 mM sodium acetate (pH 4.5) and captured by injecting 120 μl of onto the activated chip surface. Residual activated groups were blocked with a 7 min injection of 1 M ethanolamine (pH 8.5) and biotinylated CD137 captured to a level of 270-1500 RU. Buffer was changed to PBS/0.05% Tween 20 and a dilution series of the peptides was prepared in this buffer with a final DMSO concentration of 0.5%. The top peptide concentration was 500 nM with 6 further 2-fold or 3-fold dilutions. The SPR analysis was run at 25° C. at a flow rate of 90 μl/min with 60 seconds association and 900 seconds dissociation. After each cycle a regeneration step (10 μl of 10 mM glycine pH 2) was employed. Data were corrected for DMSO excluded volume effects as needed. All data were double-referenced for blank injections and reference surface using standard processing procedures and data processing and kinetic fitting were performed using Scrubber software, version 2.0c (BioLogic Software). Data were fitted using simple 1:1 binding model allowing for mass transport effects where appropriate.

The target in test [4] is CD137 expressed on cells (CHO cells expressing CD137; Jurkat cells of the Promega CD137 luciferase reporter assay) (UniProt Q07011). Nature of the test: cell-based or functional assay.
In test [5] the target is T3, human EphA2 protein (human, UniProt P29317 25-534, limits assumed, biotinylated with EZ-Link Sulfo-NHS-LC-Biotin).
T3 construct: Construct not described
Nature of the test: SPR (Biacore T200), biotinylated human EphA2 on streptavidin chip. The method, then:
Streptavidin was immobilized on the chip using standard amine-coupling chemistry at 25° C. with HBS-N (10 mM HEPES, 0.15 M NaCl, pH 7.4) as the running buffer. Briefly, the carboxymethyl dextran surface was activated with a 7 min injection of a 1:1 ratio of 0.4 M 1-ethyl-3-(3-dimethylaminopropyl) carbodiimide hydrochloride (EDC)/0.1 M N-hydroxy succinimide (NHS) at a flow rate of 10 μl/min. […] Data were corrected for DMSO excluded volume effects. All data were double-referenced for blank injections and reference surface using standard processing procedures and data processing and kinetic fitting were performed using Scrubber software, version 2.0c (BioLogic Software). Data were fitted using simple 1:1 binding model allowing for mass transport effects where appropriate.

Test [6] deals with CD137 on human PBMC (anti-CD3 stimulated) (human, UniProt Q07011 24-255). Nature of the test: cell-based or functional assay.

Starred links: 1 amine or outer side, 2 acyl side, 3 side chain; linkers in the order of their positions; H or OH if unused. Positions of bridges follow the written chain, without caps; N, C: chain ends. Non-standard residues stand in square brackets, D forms with d. Chains are numbered I, II in the order given. No end group written: not given here. *: point of attachment. TATA = O=C(CC[*:1])N1CN(C(=O)CC[*:2])CN(C(=O)CC[*:3])C1; 1Nal = N[C@@H](Cc1cccc2ccccc12)C(=O)O; Hyp = O=C(O)[C@@H]1C[C@@H](O)CN1; hArg = N=C(N)NCCCC[C@H](N)C(=O)O; tBuAla = CC(C)(C)C[C@H](N)C(=O)O; Nle = CCCC[C@H](N)C(=O)O; Pent4ynoyl = C#CCCC(=O)*; Dap = NC[C@H](N)C(=O)O; βAla = NCCC(=O)O; Sar = CNCC(=O)O Some results are limits rather than exact numbers.

CD137 expressed on cells (CHO cells expressing CD137; Jurkat cells of the Promega CD137 luciferase reporter assay), sequence (Q07011 24-255 limits assumed): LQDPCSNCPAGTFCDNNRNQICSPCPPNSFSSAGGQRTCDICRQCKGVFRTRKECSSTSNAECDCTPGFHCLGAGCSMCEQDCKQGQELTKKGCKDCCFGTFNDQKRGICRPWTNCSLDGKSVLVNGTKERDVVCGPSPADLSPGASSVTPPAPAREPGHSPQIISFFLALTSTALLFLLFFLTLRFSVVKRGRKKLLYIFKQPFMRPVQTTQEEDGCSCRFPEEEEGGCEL
CD137 on human PBMC (anti-CD3 stimulated), sequence (Q07011 24-255): as the sequence (Q07011 24-255 limits assumed) above
CD137 expressed on cells (CHO cells expressing CD137); Jurkat cells of the Promega CD137 luciferase reporter …, sequence (Q07011 24-255 limits assumed): as above
T3 sequence (P29317 25-534 limits assumed): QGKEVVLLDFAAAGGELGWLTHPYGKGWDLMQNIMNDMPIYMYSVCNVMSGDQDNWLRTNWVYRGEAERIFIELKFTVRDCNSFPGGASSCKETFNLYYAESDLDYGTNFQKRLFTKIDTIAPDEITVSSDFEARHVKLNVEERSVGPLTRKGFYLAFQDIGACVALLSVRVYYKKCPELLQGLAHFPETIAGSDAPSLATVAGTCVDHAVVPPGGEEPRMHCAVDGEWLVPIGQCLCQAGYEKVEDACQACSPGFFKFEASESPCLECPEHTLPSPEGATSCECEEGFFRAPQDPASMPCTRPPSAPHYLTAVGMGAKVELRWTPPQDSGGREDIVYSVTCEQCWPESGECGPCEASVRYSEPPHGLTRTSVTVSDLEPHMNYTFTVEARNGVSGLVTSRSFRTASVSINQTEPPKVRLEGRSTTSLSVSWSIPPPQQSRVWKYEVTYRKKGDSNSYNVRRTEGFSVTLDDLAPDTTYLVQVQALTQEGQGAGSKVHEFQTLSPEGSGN

B1: heterotandem bicyclic peptide complex BCY9759 (peptide)
peptide 1: CPXDCMXDWSTPXWC
peptide 2: ACIEEGQYCFADPYXC
modifications: BCY7732: N-terminal acetyl; Nle12; C-terminal Dap (diaminopropionic acid) bearing the linker; Ci, Cii, Ciii on TATA scaffold; BCY8116: linker on N-terminus; 1Nal2, dD3, HArg5, HyP11; Ci, Cii, Ciii on TATA scaffold
As usually defined, the Kd is a measure of binding affinity in units of concentration. In the case of B1, the Kd stood at 2.14 nM in test [1] and 44.3 nM in test [3]. In addition, the “EC50 (nM), CD137 reporter assay, co-culture with H1376 (Nectin4)” value (“EC50 (nM), CD137 reporter assay … (Nectin4)” below) in test [2] came out at 2.7 nM.

B2: heterotandem bicyclic peptide complex BCY10577 (peptide)
peptide 1: {Pent4ynoyl-βAla}-[Sar][Sar][Sar][Sar][Sar][Sar][Sar][Sar][Sar][Sar]A[hArg]DC[Hyp]LVNPLCLHP[dD]W[hArg]C
peptide 2: Ac-C[tBuAla]PE[dA]PYCFADPY[Nle]C[Dap]
modifications: linker I:14-I:21-I:28, II:1-II:8-II:15 via TATA; not fully specified (C-terminus); numbers in words are those of the source; also: chains joined by CH2 linker, triazole from PYA, linker on Dap side chain
In test [4], B2 registered an EC50 (nM), CD137 reporter assay, co-culture with PC3 (EphA2) of 0.28 nM and a Fold Induction over Background, CD137 reporter assay, co-culture with PC3 (EphA2) of 37 fold.

B3: heterotandem bicyclic peptide complex BCY9350 (peptide)
peptide 1: CPXDCMXDWSTPXWC
peptide 2: ACIEEGQYCFADPYXC
modifications: BCY7732: N-terminal acetyl; Nle12; C-terminal Dap (diaminopropionic acid) bearing the linker; Ci, Cii, Ciii on TATA scaffold; BCY11942: N-terminal [PYA]-[B-Ala]-[Sar10]- (linker on PYA); 1Nal2, dD3, HArg5, dW7, HyP11, dW12; Ci, Cii, Ciii on TATA scaffold
In test [4], B3 yielded a Fold Induction over Background, CD137 reporter assay, co-culture with H1376 (Nectin4) below 2 fold. Also, the Kd in test [3] was found to be 69.4 nM.

B4: heterotandem bicyclic peptide complex BCY9173 (peptide)
peptide 1: {Pent4ynoyl-βAla}-[Sar][Sar][Sar][Sar][Sar][Sar][Sar][Sar][Sar][Sar]A[hArg]DC[Hyp]LVNPLCLHP[dD]W[hArg]C
peptide 2: Ac-C[tBuAla]PE[dA]PYCFADPY[Nle]C[Dap]
modifications: linker I:14-I:21-I:28, II:1-II:8-II:15 via TATA; numbers in words are those of the source; also: heterotandem: PYA of chain 1 linked via PEG12 to C-terminal Dap of chain 2
In test [5], B4 yielded a Kd of 2.1 nM. Besides, in test [2], the “EC50 (nM), CD137 reporter assay, co-culture with SC-OV-3 (EphA2)” value stood at 0.94 nM and the “Fold Induction over Background, CD137 reporter assay, co-culture with SC-OV-3 (EphA2)” value worked out at 21 fold. Moreover, in test [3], the Kd is 7.98 nM.

B5: heterotandem bicyclic peptide complex BCY10000 (peptide)
peptide 1: {Pent4ynoyl-βAla}-[Sar][Sar][Sar][Sar][Sar][Sar][Sar][Sar][Sar][Sar]CP[1Nal][dD]CM[hArg]DWSTP[Hyp]WC
peptide 2: Ac-C[tBuAla]PE[dA]PYCFADPY[Nle]C[Dap]
modifications: linker I:11-I:15-I:25, II:1-II:8-II:15 via TATA; not fully specified (C-terminus); numbers in words are those of the source; also: linker to a chain's N/C-terminus via PEG12
Consider B5, for which, in test [6], the “EC50 (nM), IFN-γ secretion, human PBMC co-culture with 4T1-D02(Nectin4+)” value came to 0.21 nM and the “max IFN-γ (pg/ml), human PBMC co-culture with 4T1-D02(Nectin4+)” value is 19600 pg/mL. In test [1], the affinity, expressed as Kd, was 2.26 nM. Further, the “EC50 (nM), CD137 reporter assay … (Nectin4)” value in test [2] was 0.58 nM. Moreover, the Kd in test [3] came to 6.19 nM.

B6: heterotandem bicyclic peptide complex BCY8854 (peptide)
peptide 1: CPXDCMXDWSTPXWC
peptide 2: ACIEEGQYCFADPYXC
modifications: BCY7732: N-terminal acetyl; Nle12; C-terminal Dap (diaminopropionic acid) bearing the linker; Ci, Cii, Ciii on TATA scaffold; BCY8846: N-terminal [PYA]-[B-Ala]-[Sar10]- (linker on PYA); 1Nal2, dD3, HArg5, HyP11; Ci, Cii, Ciii on TATA scaffold
As for B6, in test [6], the “EC50 (nM), IFN-γ secretion, human PBMC co-culture with 4T1-D02(Nectin4+)” value is 0.89 nM and the “max IFN-γ (pg/ml), human PBMC co-culture with 4T1-D02(Nectin4+)” value turned out to be 16000 pg/mL. In addition, binding in test [1] was put at a Kd of 2.76 nM. Further, the “EC50 (nM), CD137 reporter assay … (Nectin4)” value in test [2] was determined as 1.2 nM. Moreover, in test [3], the Kd worked out at 108 nM.

B7: heterotandem bicyclic peptide complex BCY8943 (peptide)
peptide 1: VGPCLWDPTPCANLHLXC
peptide 2: ACIEEGQYCFADPYXC
modifications: BCY7732: N-terminal acetyl; Nle12; C-terminal Dap (diaminopropionic acid) bearing the linker; Ci, Cii, Ciii on TATA scaffold; BCY8941: N-terminal [PYA]-[B-Ala]-[Sar10]- (linker on PYA); HArg12; Ci, Cii, Ciii on TATA scaffold
Consider B7, for which the “Fold Induction over Background, CD137 reporter assay, co-culture with PC3 (EphA2)” value in test [2] is below 2 fold. Moreover, the Kd in test [3] is 156 nM.

The values are drawn from US20190307836A1 (Bicycle, published 2019).
